Measurements: PMC9475456, “DDX56 transcriptionally activates MIST1 to facilitate tumorigenesis of HCC through PTEN-AKT signaling”

Target: T1, DDX56 (His-DDX56) (human, UniProt Q9NY93 1-547)
T1 sequence: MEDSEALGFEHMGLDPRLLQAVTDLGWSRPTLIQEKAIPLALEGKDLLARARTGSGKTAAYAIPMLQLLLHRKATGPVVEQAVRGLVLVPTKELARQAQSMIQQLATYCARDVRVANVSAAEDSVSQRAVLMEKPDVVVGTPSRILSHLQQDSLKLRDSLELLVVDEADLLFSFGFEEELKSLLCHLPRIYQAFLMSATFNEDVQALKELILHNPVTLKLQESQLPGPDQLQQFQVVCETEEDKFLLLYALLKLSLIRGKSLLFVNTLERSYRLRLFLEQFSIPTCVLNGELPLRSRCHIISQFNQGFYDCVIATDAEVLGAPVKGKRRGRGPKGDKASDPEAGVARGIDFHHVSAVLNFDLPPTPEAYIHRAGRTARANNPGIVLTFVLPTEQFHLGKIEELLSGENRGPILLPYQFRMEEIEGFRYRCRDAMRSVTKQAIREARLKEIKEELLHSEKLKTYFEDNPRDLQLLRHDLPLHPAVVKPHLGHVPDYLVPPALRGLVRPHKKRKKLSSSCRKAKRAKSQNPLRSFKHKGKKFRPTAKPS
Experiment: EMSA; 5 mM Mg2+; poly(dI-dC); supershifted by DDX56 antibody; LightShift EMSA kit, 20 uL: 2 uL 10x binding buffer, 1 uL 50% glycerol, 1 uL 100 mM MgCl2, 1 ug/uL poly(dI-dC), 1 uL 1% NP-40, 2 ug protein; supershift at room
Conditions: protein: commercial; tags: N-terminal His; label: 5' biotin; blunt

B1: MIST1 promoter -160 to -117 (dsDNA)
DNA 1: GCCACCTGGTCCGGGAGCCCCAGGCGCCGGCCTCCCGCCCGCCC
DNA 2: GGGCGGGCGGGAGGCCGGCGCCTGGGGCTCCCGGACCAGGTGGC
B1: binds.
